From patent publication US20090048117A1 (Harvard, published 2009)
Values belong to the binder of their own block, whether it stands above or below them.

Legend:
[1] = biological target: T1, NFATc expressed from an expression construct; assay: cell-based or functional assay
T1 sequence (O95644 1-943, species assumed, looked up): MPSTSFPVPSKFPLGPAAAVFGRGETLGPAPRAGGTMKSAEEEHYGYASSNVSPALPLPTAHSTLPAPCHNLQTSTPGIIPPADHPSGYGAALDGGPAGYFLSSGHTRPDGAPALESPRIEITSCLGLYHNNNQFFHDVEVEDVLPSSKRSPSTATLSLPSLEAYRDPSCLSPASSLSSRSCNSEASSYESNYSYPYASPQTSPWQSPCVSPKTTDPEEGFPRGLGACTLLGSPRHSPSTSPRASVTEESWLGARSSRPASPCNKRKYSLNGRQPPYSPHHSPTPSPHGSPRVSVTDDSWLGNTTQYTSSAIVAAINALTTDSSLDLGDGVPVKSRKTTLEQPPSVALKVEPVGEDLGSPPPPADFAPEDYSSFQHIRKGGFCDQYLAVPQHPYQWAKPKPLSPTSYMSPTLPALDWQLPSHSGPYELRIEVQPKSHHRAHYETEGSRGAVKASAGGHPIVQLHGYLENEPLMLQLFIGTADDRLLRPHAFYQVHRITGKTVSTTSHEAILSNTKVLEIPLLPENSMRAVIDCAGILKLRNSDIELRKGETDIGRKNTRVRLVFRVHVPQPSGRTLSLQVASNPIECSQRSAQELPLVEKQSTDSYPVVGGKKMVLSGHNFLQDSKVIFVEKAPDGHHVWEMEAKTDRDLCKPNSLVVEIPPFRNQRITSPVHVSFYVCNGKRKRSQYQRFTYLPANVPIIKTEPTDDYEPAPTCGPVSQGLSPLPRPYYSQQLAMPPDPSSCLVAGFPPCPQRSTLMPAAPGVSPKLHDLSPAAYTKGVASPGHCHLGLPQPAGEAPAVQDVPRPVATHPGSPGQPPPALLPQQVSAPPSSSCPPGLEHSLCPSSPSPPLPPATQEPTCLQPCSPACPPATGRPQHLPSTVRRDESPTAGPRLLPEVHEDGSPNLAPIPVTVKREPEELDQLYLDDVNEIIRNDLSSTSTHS

[2] = biological target: T2, NFAT3 expressed from an expression construct; assay: cell-based or functional assay
T2 sequence (Q14934 1-902, species assumed, looked up): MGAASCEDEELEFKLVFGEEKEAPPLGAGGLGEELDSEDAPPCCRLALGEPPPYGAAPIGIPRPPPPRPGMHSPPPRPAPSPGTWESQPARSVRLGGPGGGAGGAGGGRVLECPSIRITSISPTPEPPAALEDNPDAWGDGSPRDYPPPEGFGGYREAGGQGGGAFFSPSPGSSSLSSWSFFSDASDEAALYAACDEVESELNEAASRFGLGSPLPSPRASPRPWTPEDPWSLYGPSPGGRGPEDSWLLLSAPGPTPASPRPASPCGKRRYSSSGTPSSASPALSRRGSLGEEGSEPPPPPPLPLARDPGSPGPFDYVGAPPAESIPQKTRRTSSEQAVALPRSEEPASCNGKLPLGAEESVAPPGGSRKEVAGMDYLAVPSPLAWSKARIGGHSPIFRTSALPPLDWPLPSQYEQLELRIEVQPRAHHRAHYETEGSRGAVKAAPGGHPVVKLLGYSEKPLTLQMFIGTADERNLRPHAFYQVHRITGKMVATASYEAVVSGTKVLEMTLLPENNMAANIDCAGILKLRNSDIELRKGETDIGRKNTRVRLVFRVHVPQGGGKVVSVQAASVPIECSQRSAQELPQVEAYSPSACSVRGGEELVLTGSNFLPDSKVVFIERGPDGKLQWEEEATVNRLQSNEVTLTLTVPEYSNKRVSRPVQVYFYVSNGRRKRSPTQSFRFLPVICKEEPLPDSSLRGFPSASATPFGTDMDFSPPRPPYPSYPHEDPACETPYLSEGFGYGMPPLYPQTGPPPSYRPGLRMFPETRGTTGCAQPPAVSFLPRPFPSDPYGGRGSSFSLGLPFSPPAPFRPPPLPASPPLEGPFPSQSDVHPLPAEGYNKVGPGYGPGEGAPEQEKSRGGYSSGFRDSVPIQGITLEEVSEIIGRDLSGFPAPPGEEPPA

[3] = biological target: T3, NFAT4 expressed from an expression construct; assay: cell-based or functional assay
T3 sequence (Q12968 2-1075, species assumed, looked up): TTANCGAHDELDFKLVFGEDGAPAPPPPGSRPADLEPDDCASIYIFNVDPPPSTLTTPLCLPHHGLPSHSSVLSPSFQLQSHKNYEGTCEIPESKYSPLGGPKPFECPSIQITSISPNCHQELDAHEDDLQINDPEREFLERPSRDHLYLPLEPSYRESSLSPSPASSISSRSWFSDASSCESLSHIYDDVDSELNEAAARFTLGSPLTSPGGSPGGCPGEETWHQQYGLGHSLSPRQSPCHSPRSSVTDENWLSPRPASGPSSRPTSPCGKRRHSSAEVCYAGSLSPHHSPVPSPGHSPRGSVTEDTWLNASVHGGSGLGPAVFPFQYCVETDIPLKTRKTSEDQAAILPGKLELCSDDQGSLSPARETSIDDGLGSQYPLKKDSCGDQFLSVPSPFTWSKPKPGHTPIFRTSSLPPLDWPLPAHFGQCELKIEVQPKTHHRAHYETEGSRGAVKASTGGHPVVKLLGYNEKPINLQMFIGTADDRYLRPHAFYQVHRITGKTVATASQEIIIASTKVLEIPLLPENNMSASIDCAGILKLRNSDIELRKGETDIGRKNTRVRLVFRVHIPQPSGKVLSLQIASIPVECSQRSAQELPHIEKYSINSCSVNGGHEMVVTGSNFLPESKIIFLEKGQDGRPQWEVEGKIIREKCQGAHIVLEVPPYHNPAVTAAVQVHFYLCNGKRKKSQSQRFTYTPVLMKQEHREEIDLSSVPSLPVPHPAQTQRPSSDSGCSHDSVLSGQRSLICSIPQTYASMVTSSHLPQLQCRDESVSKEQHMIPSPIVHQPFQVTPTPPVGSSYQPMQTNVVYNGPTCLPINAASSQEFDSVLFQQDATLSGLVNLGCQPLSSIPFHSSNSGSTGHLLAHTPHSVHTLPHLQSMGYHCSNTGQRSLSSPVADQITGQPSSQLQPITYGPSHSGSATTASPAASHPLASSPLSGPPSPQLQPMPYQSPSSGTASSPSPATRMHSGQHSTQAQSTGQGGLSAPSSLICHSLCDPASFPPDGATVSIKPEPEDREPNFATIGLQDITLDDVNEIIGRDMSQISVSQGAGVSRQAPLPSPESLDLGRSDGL

[4] = biological target: T4, CARM1 of Jurkat cell lysates (human, UniProt Q86X55 2-608, limits assumed); assay: GST pull-down of Jurkat cell lysates, immunoblot with a polyclonal CARM1 antibody
T4 sequence (looked up): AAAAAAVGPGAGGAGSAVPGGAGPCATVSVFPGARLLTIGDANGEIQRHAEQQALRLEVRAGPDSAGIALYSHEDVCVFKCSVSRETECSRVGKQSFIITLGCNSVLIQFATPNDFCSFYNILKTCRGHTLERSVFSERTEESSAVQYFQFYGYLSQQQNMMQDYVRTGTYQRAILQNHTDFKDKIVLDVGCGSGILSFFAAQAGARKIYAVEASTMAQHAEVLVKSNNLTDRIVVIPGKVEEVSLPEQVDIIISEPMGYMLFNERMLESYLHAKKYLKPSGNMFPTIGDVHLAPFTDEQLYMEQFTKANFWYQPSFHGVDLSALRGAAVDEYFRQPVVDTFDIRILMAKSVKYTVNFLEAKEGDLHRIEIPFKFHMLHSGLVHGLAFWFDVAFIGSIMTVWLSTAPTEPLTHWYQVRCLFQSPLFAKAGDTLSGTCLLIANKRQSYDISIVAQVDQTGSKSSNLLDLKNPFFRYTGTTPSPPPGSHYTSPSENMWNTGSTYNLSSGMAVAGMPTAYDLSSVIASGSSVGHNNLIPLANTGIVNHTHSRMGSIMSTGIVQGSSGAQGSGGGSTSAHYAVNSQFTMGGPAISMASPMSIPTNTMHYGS
Procedure: FIGS. 16A-16C depict the interaction of NIP45 and PRMT. (A) Jurkat cell lysates were used in pulldown assays with 25 μg of recombinant GST, GST-NIP45, and GST-ΔN-NIP45. The presence of PRMT1 or CARM1 in pulldown samples was determined by immunoblotting with a monoclonal PRMT1 antibody and a polyclonal CARM1 antibody. PVDF membranes were reprobed with anti-GST antibodies to determine equal amount of recombinant proteins in pulldown samples. (B) Flag-NIP45or Flag-ΔN-NIP45 or vector control and HA-PRMT1 expression constructs were transfected in 293 cells. Lysates were immunoprecipitated with anti-Flag agarose and interaction with PRMT1 was determined by probing immunoblots with a monoclonal anti-HA antibody. Equal loading was assessed by probing with an anti-Flag antibody. (C) Lysates from unstimulated or 60 min PMA/ionomycin stimulated day 7 Th1 or Th2 differentiation cultures were immunoprecipitated with a monoclonal PRMT1 antibody or appropriate isotype control. Interaction with endogenous NIP45 was determined by immunoblotting PRMT1 antibody to determine equal loading.
Because PRMT1 methylates NIP45, their interaction was examined more closely. To determine specificity of interaction GST-NIP45 and GST-ΔN-NIP45 fusion proteins were used in pulldown assays of Jurkat cell lysates. […]

transactivation of a 3X NFAT-CAT reporter in HepG2 cells [1]: 4 fold | transactivation of a 3X NFAT-CAT reporter in HepG2 cells [2]: 3 fold | transactivation of a 3X NFAT-CAT reporter in HepG2 cells [3]: 2 fold
B1: NIP45 expressed from a NIP45 expression plasmid (other)
chain: MAEPLRGRGPRSRGGRGARRARGARGRCPRARQSPARLIPDTVLVDLVSDSDEEVLEVADPVEVPVARLPAPAKPEQDSDSDSEGAAEGPAGAPRTLVRRRRRRLLDPGEAPVVPVYSGKVQSSLNLIPDNSSLLKLCPSEPEDEADLTNSGSSPSEDDALPSGSPWRKKLRKKCEKEEKKMEEFPDQDISPLPQPSSRNKSRKHTEALQKLREVNKRLQDLRSCLSPKQHQSPALQSTDDEVVLVEGPVLPQSSRLFTLKIRCRADLVRLPVRMSEPLQNVVDHMANHLGVSPNRILLLFGESELSPTATPSTLKLGVADIIDCVVLASSSEATETSQELRLRVQGKEKHQMLEISLSPDSPLKVLMSHYEEAMGLSGHKLSFFFDGTKLSGKELPADLGLESGDLIEVWG

B2: GST-NIP45 fusion protein (bacterially expressed, full length NIP45) (other)
chain: B1 chain
notes: also called recombinant GST-NIP45; recombinant full-length NIP45; not shown: glutathione-S-transferase (GST) fusion partner
binding result [4]: no binding (tested: 25 µg of recombinant protein)
